Source: patent publication US20220119472A1 (ORIONIS BIOSCIENCES, published 2022)

T1: recombinant His6-tagged extracellular domain of human Clec4C (C-type lectin domain family 4, member C) (human, UniProt Q8WTT0 44-213)
T1 construct: Same antigen for immunisation, panning and ELISA; also called His-Clec4C(EC); pMET7-SIgK-His-Clec4C(EC)
T1 sequence: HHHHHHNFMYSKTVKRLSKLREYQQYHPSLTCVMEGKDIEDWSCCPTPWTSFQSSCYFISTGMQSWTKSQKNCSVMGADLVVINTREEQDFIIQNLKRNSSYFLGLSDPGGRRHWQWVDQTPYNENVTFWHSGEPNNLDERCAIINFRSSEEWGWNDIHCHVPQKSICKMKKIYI

B1: 2CL29 (VHH)
VHH: QVQLQESGGGLVQPGDSLRLSCTASERTFTNYAMAWFRQAPGKERDVLATISRSGSSTFYAESVKGRFTISRDNTKNTVYLQMNSLEPEDTAVYYCAARPLVPSEDPDNYNYWGQGTQVTVSS
notes: pMECS VHH-HA-His6; TG1 periplasmic extract
B2: 2CL57 (VHH)
VHH: QVQLQESGGGLVQAGGSLKLSCAASGRTFSSYAMGWFRQAPGKERDFVAVISWRNNTYYADSVKGRFTISRDNAKNTVHLQMNSLKSEDTAVYYCAAAGLGAVVAGMSDYDYWGQGTQVTVSS
notes: as for B1
B3: 2CL81 (VHH)
VHH: QVQLQESGGGLVQAGDSLKLSCAASGRTFSTYAMGWFRQAPGKERDVVAAIATNGGTTYYVDSVKGRFTISRDNAQNRVYLQMNSLKPEDTAIYYCAARLSFGSGYYTNKLNYAYWGQGTQVTVSS
notes: as for B1
B4: 1CL81 (VHH)
VHH: QVQLQESGGGLVQAGNSLKLSCAASGRNLAYYVMGWFRQAPGREREPVATLTRGGDDTYCADSVKGRFTISSDNAKNTVYLQMNNLKPEDTAIYTCAARLAVLSSNTYCSGLWDYWGQGTQVTVSS
notes: as for B1
B5: 2CL65 (VHH)
VHH: QVQLQESGGGLVQPGGSLRLSCAASGRIFSINAMGWYRQAPGKQRELVAVISRSGISNYVDSVKGRFTISRDNAKNTVYLQMNSLNPEDTADYYCNADVLLTFNKREDSWGQGTQVTVSS
notes: as for B1
B6: 1CL88 (VHH)
VHH: QVQLQESGGGLVQAGGSLRLSCAASGRIFSNSAMGWFRQVLGKEREFVAAISENSSILYYTASVKGRFTISRDNDKNTVYLQMTSLKAEDTAVYYCAGYGSTTIRTTTRPTKWGQGTQVTVSS
notes: as for B1
B7: 2CL66 (VHH)
VHH: QVQLQESGGGLVQAGGSLRLSCAASERTFTNYAMGWFRQGPGKDRAFVAAISRSGSSTSYADSVKGRFTISRDNAENILYLQMNSLKPEDTAVYYCAAAPLVLKTTPGAYNYWGQGTQVTVSS
notes: as for B1
B8: 2CL46 (VHH)
VHH: QVQLQESGGGLVQAGGSLRLSCAVSGRTFSSYAMGWFRQARGKEREFVAAVEWSSGSTFYTDSVKGRFAISRDIAKNTVYLQMNSLKPEDTAVYYCAGDHTGKLVFSKTSDYWGQGTQVTVSS
notes: as for B1
B9: 2CL34 (VHH)
VHH: QVQLQESGGGLVQAGGSLRLSCAASGRTFTNYAMGWFRQAPGKEREFVATISRSGSMPYYADSVKGRFTISRDNAKNMVYLQMNSLKPEDTAVYYCAANVLVTTTRLDQYDSWGQGTQVTVSS
notes: as for B1
B10: 2CL56 (VHH)
VHH: QVQLQESGGGSVQAGDSLTLSCIASGRTFSSLAMGWFRQAPGKEREFVAAINWSGDSTYYSDSMKGRLTMSRDNAKNTVFLQMNSLEPEDTAVYVCAADASGYGSAWPDRYDYWGQGTQVTVSS
notes: as for B1
B11: 1CL56 (VHH)
VHH: QVQLQESGGGLVQPGGSLTLSCGASGFDFSDYVMYWLRQAPGKGLQWVSSINASGVRTYYVDALKGRFTISRDNAKNTLYLQIDDLKPEDTGLYYCARVGQAPMYFGVDFWGNGTQVTVSS
notes: as for B1
B12: 2CL40 (VHH)
VHH: QVQLQESGGGLVQTGGSLRVSCAASGRSISNYNMGWFRQPPGKEREIVGSIRWDGDSTYYADSVKGRFTISRDNTKNTVYLQMNSLKSEDTADYYCAATVSSFDESKNPRWYPYWGQGTQVTVSS
notes: as for B1
B13: 2CL15 (VHH)
VHH: QVQLQESGGGLVQPGGSVRLSCAASVFTLNNFIMSWVRQAPGKGLERVSDINMVGITDYSDPVKGRFTISRDNKQNTVYLQGNTLKPEDTAVYFCAAGRPIGLYYPSPRIRDYNDWGQGTQVTVSS
notes: as for B1

Target: T1, recombinant His6-tagged extracellular …
Assay: ELISA, antigen-coated vs uncoated blocked wells
Source text: (§1) In total, 190 colonies from rounds 1 and 2 were randomly selected and analyzed by ELISA for the presence of antigen-specific VHH in their periplasmic extracts (ELISA using crude periplasmic extracts from TG1 cultures including soluble VHH). The antigen used for ELISA screening was the same as the one used for immunization, using uncoated blocked wells as negative control.

| Binder | ELISA ratio coated/uncoated |
| --- | --- |
| B1 | 6.84 |
| B2 | 4.38 |
| B3 | 8.32 |
| B4 | 4.72 |
| B5 | 9.33 |
| B6 | 3.42 |
| B7 | 18.6 |
| B8 | 4.82 |
| B9 | 3.83 |
| B10 | 4.72 |
| B11 | 4.82 |
| B12 | 13.3 |
| B13 | 12.8 |

Target: T1, recombinant His6-tagged extracellular …
Assay: ELISA, TG1 periplasmic extract on coated antigen
Source text: as §1

| Binder | ELISA coated |
| --- | --- |
| B1 | 2.24 |
| B2 | 0.922 |
| B3 | 3.69 |
| B4 | 1.12 |
| B5 | 1.72 |
| B6 | 4 |
| B7 | 2.04 |
| B8 | 3.3 |
| B9 | 2.8 |
| B10 | 0.999 |
| B11 | 3.89 |
| B12 | 3.11 |
| B13 | 3.9 |
